This test deals with acetylcholine receptor. Briefly: SPR, AchR on chip, peptide 10 uM. A general note: In SPR one partner is held on a chip, and binding of the other changes the refractive index at the surface.

Take KQVSR [5mer-39]: the Binding affinity (RU) worked out at 67 RU.

Consider RRLQK [5mer-36], for which the Binding affinity (RU) came out at 60 RU.

As to KSFYR [5mer-43], the Binding affinity (RU) came out at 53 RU.

For the molecule KQFQR [5mer-344], the Binding affinity (RU) turned out to be 52 RU.

KWVRK [5mer-339] displayed a Binding affinity (RU) of 87 RU.

In the case of KGISK [5mer-346], the Binding affinity (RU) is 57 RU.

RQQRR [5mer-345] had a Binding affinity (RU) of 86 RU.

RGYCK [5mer-38] yielded a Binding affinity (RU) of 53 RU.

As for RVYLR [5mer-48], the Binding affinity (RU) worked out at 62 RU.

For KRQTK [5mer-348], the Binding affinity (RU) amounted to 80 RU.

In turn, KSFSR [5mer-343] yielded a Binding affinity (RU) of 60 RU.

Consider RRLSR [5mer-37], for which the Binding affinity (RU) is 72 RU.

Molecule KGRSR [5mer-337] displayed a Binding affinity (RU) of 67 RU.

Consider KRICR [5mer-347], for which the Binding affinity (RU) was determined as 78 RU.

In turn, KSVSR [5mer-336] returned a Binding affinity (RU) of 83 RU.

Consider RQRLR [5mer-42], for which the Binding affinity (RU) was determined as 83 RU.

As to RWILR [5mer-338], the Binding affinity (RU) turned out to be 61 RU.

The molecule KRQCK [5mer-46] displayed a Binding affinity (RU) of 76 RU.

In turn, KVYQR [5mer-342] displayed a Binding affinity (RU) of 69 RU.

RWYRR [5mer-341] gave a Binding affinity (RU) of 52 RU.

KSVCR [5mer-40] registered a Binding affinity (RU) of 67 RU.

As for RSRTR [5mer-44], the Binding affinity (RU) was found to be 59 RU.

Consider KRYQR [5mer-199], for which the Binding affinity (RU) was determined as 84 RU.

As to KGYRR [5mer-340], the Binding affinity (RU) is 51 RU.

As to KGVRR [5mer-47], the Binding affinity (RU) came to 70 RU.

RVLTK [5mer-499] yielded a Binding affinity (RU) of 76 RU.

KVISK [5mer-41] returned a Binding affinity (RU) of 82 RU.

As to RVFQR [5mer-45], the Binding affinity (RU) was found to be 86 RU.

The values are drawn from US20250011363A1, “OPTIMIZED SHORTENED PEPTIDE THAT BINDS TO ACETYLCHOLINE RECEPTOR, AND USE THEREOF” (SKINMED CO., LTD., priority 2021, published 2025).
